We go through one substance from publication PMC7315649.

The assay deals with human plasminogen (human). The assay is described as follows: SPR; BIAcore T100 at 25°C; plasminogen amine-coupled to a CM-5 chip (5.0 ng/mm^2); dispersin at 2.5–120 μM in HBS-P (10 mM HEPES pH 7.4, 150 mM NaCl, 0.005% P20) at 30 μL/min; 1:1 model. For orientation: Surface plasmon resonance follows binding to a sensor surface in real time, without labels.

Consider “recombinant dispersin (mature dispersin of enteroaggregative Escherichia coli strain 17-2) (from UniProt P43464 1-265) (natural protein)”, for which the Kd was 282 nM, the koff is 0.0016 s⁻¹ and the kon was 5680 M⁻¹ s⁻¹.

Broadly, the Kd is the free concentration of one partner at which half of the binding sites on the other are occupied at equilibrium, for simple one-to-one binding. Higher therefore signals lower affinity. By koff is commonly meant a measure of how fast the partners let go of each other. The low end stands for slow dissociation, the high end for fast dissociation. One may read the kon as the rate constant with which the complex forms. Low values mean slower complex formation, high ones faster complex formation.
